For orientation: Kd means a measure of binding affinity in units of concentration. A lower Kd goes with a tighter complex.

This note sets out measurements from patent US20150344570A1 (published 2015).

The target of assay [1] is T1, FcgRIIb (human, UniProt P31994 43-217).
T1 construct: extracellular domain; also called FcγRIIb; 2b; not shown: His tag at the C terminus
T1 sequence (looked up): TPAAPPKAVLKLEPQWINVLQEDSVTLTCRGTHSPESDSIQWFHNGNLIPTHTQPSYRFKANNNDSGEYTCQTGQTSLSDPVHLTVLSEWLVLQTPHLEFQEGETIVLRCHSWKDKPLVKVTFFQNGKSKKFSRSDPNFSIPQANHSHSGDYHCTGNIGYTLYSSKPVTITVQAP
Briefly: SPR (Biacore); KD of H240-Kn033/H240-Hl033/L73-k0 divided by KD of the variant. How it is done: (§1) Next, the amino acid at position 330 was examined. The A330M alteration has been introduced into H240-Hl076 of H240-Kn125/H240-Hl076/L73-k0. […] L73-k0 was used as the common antibody L chain. Binding of the produced variants to FcgRIa, FcgRIIaR, FcgRIIaH, FcgRIIb, FcgRIIIaF, and FcgRIIIaV was measured according to the method of Reference Example 8.
(§2) Analysis of interaction between objective antibody and the FcγR was carried out using Biacore T100 (GE Healthcare), Biacore T200, Biacore A100, and Biacore 4000. HBS-EP+ (GE Healthcare) was used as the running buffer, and the measurement temperature was set to 25° C. Chips produced by immobilizing the antigen peptide by the amine coupling method to a Series S sensor Chip CM5 (GE Healthcare), chips produced by allowing preliminarily biotinylated antigen peptides to interact with and immobilize onto a Series S Sensor Chip SA (certified) (GE Healthcare), chips produced by immobilizing Protein L (ACTIGEN, BioVision) to Series S Sencor Chip CM5 (GE Healthcare), or chips produced by immobilizing Protein A/G (Thermo Scientific) to Series S Sencor Chip CM5 (GE Healthcare) were used. Antibodies of interest were captured onto these chips, and allowed to interact to each FcγR diluted with running buffer. To regenerate and repeatedly use the chip, the antibodies captured onto the chip were washed off by reacting 10 mM glycine-HCl, pH 1.5.
In general terms: In SPR one partner is held on a chip, and binding of the other changes the refractive index at the surface.

Assay [2] has as its target T2, FcgRIIIaF (human, UniProt P08637 17-208).
T2 construct: extracellular domain; Polymorphic site after J. Clin. Invest; also called FcγRIIIa F; 3aF; not shown: His tag at the C terminus
The assay is described as above. As for the experimental part: as §1, §2

Assay [3] addresses T3, FcgRIIaH (human, UniProt P12318 34-217).
T3 construct: extracellular domain; also called FcγRIIa H; FcγRIIa type H; not shown: His tag at the C terminus
T3 sequence (looked up): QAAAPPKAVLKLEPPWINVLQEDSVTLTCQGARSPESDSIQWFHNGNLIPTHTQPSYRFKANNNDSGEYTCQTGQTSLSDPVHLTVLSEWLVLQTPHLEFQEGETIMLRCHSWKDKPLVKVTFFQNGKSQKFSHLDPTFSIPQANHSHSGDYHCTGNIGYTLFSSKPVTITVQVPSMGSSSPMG
The assay is described as above. How it is done: as §1, §2

Assay [4] has as its target T4, FcgRIIIaV (human, UniProt P08637 17-208).
T4 construct: extracellular domain; Polymorphic site after J. Clin. Invest; also called FcγRIIIa V; 3aV; not shown: His tag at the C terminus
The description is as above. As for the experimental part: as §1, §2

The target in assay [5] is T5, FcgRIIaR (human, UniProt P12318 34-217).
T5 construct: extracellular domain; also called FcγRIIa R; FcγRIIa type R; not shown: His tag at the C terminus
T5 sequence (looked up): T3 sequence (looked up) with H134R
Described as above. How it is done:
as §1, §2

Assay [6] addresses T1, FcgRIIb. Kind of assay: SPR (Biacore), antibody captured, FcgR extracellular domain as analyte. As for the experimental part: as §1, §2
The target in assay [7] is T2, FcgRIIIaF. The assay is described as above. How it is done:
as §1, §2

Assay [8] concerns the target T3, FcgRIIaH. The description is as above. How it is done:
as §1, §2

The target of assay [9] is T4, FcgRIIIaV. The description is as above. As for the experimental part:
as §1, §2

The next assay has as its target T6, FcgRIa (human, UniProt P12314 16-292).
T6 construct: extracellular domain; also called FcγRIa; FcγRI; not shown: His tag at the C terminus
Described as above. How it is done: as §1, §2

The target of assay [10] is T5, FcgRIIaR. The description is as above. How it is done: as §1, §2

Residue numbers refer to the chain shown, from its start.

T2 sequence (P08637 17-208): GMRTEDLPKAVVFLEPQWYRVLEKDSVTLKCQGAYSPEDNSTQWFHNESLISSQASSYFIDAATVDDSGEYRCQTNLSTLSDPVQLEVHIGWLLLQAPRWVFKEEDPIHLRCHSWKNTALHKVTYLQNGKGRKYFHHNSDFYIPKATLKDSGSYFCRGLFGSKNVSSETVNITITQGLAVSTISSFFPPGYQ
T4 sequence (P08637 17-208 F176V limits assumed): as the sequence (P08637 17-208) above, with F160V counted along it
T6 sequence (P12314 16-292): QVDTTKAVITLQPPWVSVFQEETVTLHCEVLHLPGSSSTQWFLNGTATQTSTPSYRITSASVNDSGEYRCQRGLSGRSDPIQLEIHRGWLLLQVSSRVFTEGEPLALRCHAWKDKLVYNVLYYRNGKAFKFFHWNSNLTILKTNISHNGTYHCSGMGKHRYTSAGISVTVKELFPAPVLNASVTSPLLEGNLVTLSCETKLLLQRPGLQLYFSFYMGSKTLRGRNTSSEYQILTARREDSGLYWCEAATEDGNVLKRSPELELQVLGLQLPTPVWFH

B1: H240-Kn125/H240-Hl076/L73-k0 (antibody, human IgG1, kappa)
heavy 1: QDQLVQSGAEVKKPGASVKVSCKASGFNIKDTYIQWVRQAPGQGLEWMGRIDPLRKQTKYREKFEGRVTITADTSTNTAYMELSSLRSEDTAVYYCVRSGREFDYWGQGTLVTVSSASTKGPSVFPLAPSSKSTSGGTAALGCLVKDYFPEPVTVSWNSGALTSGVHTFPAVLQSSGLYSLSSVVTVPSSSLGTQTYICNVNHKPSNTKVDKKVEPKSCDKTHTCPPCPAPEYQWGPMVFLFPPKPKDTLMISRTPEVTCVVVDVSDEEPEVKFNWYVDGVEVHNAKTKPREEQYNATYRVVSVLTVLHQDWLNGKEYKCKVSNKALPAPIEKTISKAKGQPREPQVCTLPPSRDELTKNQVSLWCLVKGFYPSDIAVEWESNGQPENNYKTTPPVLDSDGSFFLYSKLTVDKSRWQQGNVFSCSVMHEALHNHYTQKSLSLSP
heavy 2: QDQLVQSGAEVKKPGASVKVSCKASGFNIKDTYIQWVRQAPGQGLEWMGRIDPLRKQTKYREKFEGRVTITADTSTNTAYMELSSLRSEDTAVYYCVRSGREFDYWGQGTLVTVSSASTKGPSVFPLAPSSKSTSGGTAALGCLVKDYFPEPVTVSWNSGALTSGVHTFPAVLQSSGLYSLSSVVTVPSSSLGTQTYICNVNHKPSNTKVDKKVEPKSCDKTHTCPPCPAPELLGGPSVFLFPPKPKDTLMISRTPEVTCVVVDVSHEEPEVKFNWYVDGVEVHNAKTKPREEQYNSTYRVVSVLTVLHQDWLNGKEYKCKVSNDALPMPIEETISKAKGQPREPQVYTLPPSRCELTKNQVSLSCAVKGFYPSDIAVEWESNGQPENNYKTTPPVLDSDGSFFLVSKLTVDKSRWQQGNVFSCSVMHEALHNHYTQKSLSLSP
light: DIQMTQSPSSLSASVGDRVTITCRASQDIHKYIAWYQQKPGQAPRLLIQYTSTLQPGVPSRFSGSGSGTDYTFTISSLQPEDIATYYCLQYEQLRTFGGGTKVEIKRTVAAPSVFIFPPSDEQLKSGTASVVCLLNNFYPREAKVQWKVDNALQSGNSQESVTEQDSKDSTYSLSSTLTLSKADYEKHKVYACEVTHQGLSSPVTKSFNRGEC
notes: Template of the position 330 series
As for B1, the “fold 2b” value with FcgRIIb [1] stood at 0.8 fold. Further, the “fold 3aF” value with FcgRIIIaF [2] came to 223 fold. In addition, the “fold 2aH” value in the assay with FcgRIIaH [3] is 3.7 fold. Besides, in the assay with FcgRIIIaV [4], the “fold 3aV” value was 185 fold. Also, the “fold 2aR” value with FcgRIIaR [5] is 1.8 fold. Besides, the Kd with FcgRIIb [6] was found to be 3900 nM; in the assay with FcgRIIIaF [7], 1.3 nM; in the assay with FcgRIIaH [8] it was 140 nM; with FcgRIIIaV [9] it was 0.26 nM; in the assay with FcgRIa, 0.066 nM; with FcgRIIaR [10], 420 nM.

B2: H240-Kn125/H240-Hl218/L73-k0 (antibody, human IgG1, kappa)
heavy 1: B1 heavy 1
heavy 2: B1 heavy 2 with M329H
light: B1 light
For B2, the “fold 2b” value with FcgRIIb [1] turned out to be 1.1 fold. Moreover, the “fold 3aF” value in the assay with FcgRIIIaF [2] was 112 fold. The “fold 2aH” value with FcgRIIaH [3] was 4.7 fold. For the same molecule, the “fold 3aV” value in the assay with FcgRIIIaV [4] was 70.6 fold. Moreover, in the assay with FcgRIIaR [5], the “fold 2aR” value is 2.4 fold. The Kd with FcgRIIb [6] is 2900 nM; with FcgRIIIaF [7], 2.6 nM; with FcgRIIaH [8], 110 nM; with FcgRIIIaV [9], 0.68 nM; in the assay with FcgRIa, 0.092 nM; with FcgRIIaR [10] it was 310 nM.

B3: H240-Kn125/H240-Hl216/L73-k0 (antibody, human IgG1, kappa)
heavy 1: B1 heavy 1
heavy 2: B1 heavy 2 with M329I
light: B1 light
Regarding B3, the “fold 2b” value in the assay with FcgRIIb [1] worked out at 0.4 fold. The “fold 3aF” value in the assay with FcgRIIIaF [2] was 107 fold. In addition, the “fold 2aH” value with FcgRIIaH [3] turned out to be 2.5 fold. Besides, in the assay with FcgRIIIaV [4], the “fold 3aV” value stood at 80 fold. Further, the “fold 2aR” value with FcgRIIaR [5] came out at 1 fold. In addition, the Kd in the assay with FcgRIIb [6] came to 8300 nM; with FcgRIIIaF [7], 2.7 nM; in the assay with FcgRIIaH [8] it was 210 nM; in the assay with FcgRIIIaV [9], 0.6 nM; with FcgRIa, 0.073 nM; with FcgRIIaR [10] it was 770 nM.

B4: H240-Kn125/H240-Hl214/L73-k0 (antibody, human IgG1, kappa)
heavy 1: B1 heavy 1
heavy 2: B1 heavy 2 with M329F
light: B1 light
For B4, in the assay with FcgRIIb [1], the “fold 2b” value was 0.8 fold. Further, the “fold 3aF” value in the assay with FcgRIIIaF [2] came to 181 fold. Further, the “fold 2aH” value in the assay with FcgRIIaH [3] came out at 3.5 fold. In addition, in the assay with FcgRIIIaV [4], the “fold 3aV” value came to 126 fold. In addition, in the assay with FcgRIIaR [5], the “fold 2aR” value is 1.6 fold. In addition, the Kd worked out at 4400 nM with FcgRIIb [6]; 1.6 nM with FcgRIIIaF [7]; 150 nM with FcgRIIaH [8]; 0.38 nM with FcgRIIIaV [9]; 0.08 nM in the assay with FcgRIa; 450 nM with FcgRIIaR [10].

B5: H240-Kn125/H240-Hl210/L73-k0 (antibody, human IgG1, kappa)
heavy 1: B1 heavy 1
heavy 2: B1 heavy 2 with M329A
light: B1 light
Regarding B5, the “fold 2b” value with FcgRIIb [1] came to 0.5 fold. In addition, the “fold 3aF” value in the assay with FcgRIIIaF [2] is 70.7 fold. Further, the “fold 2aH” value with FcgRIIaH [3] worked out at 3.5 fold. Moreover, the “fold 3aV” value with FcgRIIIaV [4] was 100 fold. Besides, the “fold 2aR” value with FcgRIIaR [5] was determined as 1.1 fold. Besides, the Kd with FcgRIIb [6] is 6900 nM; with FcgRIIIaF [7] it was 4.1 nM; with FcgRIIaH [8], 150 nM; in the assay with FcgRIIIaV [9] it was 0.48 nM; with FcgRIa it was 0.065 nM; with FcgRIIaR [10] it was 650 nM.

B6: H240-Kn125/H240-Hl217/L73-k0 (antibody, human IgG1, kappa)
heavy 1: B1 heavy 1
heavy 2: B1 heavy 2 with M329Y
light: B1 light
As to B6, the “fold 2b” value in the assay with FcgRIIb [1] was 0.9 fold. Further, the “fold 3aF” value with FcgRIIIaF [2] turned out to be 121 fold. Besides, the “fold 2aH” value with FcgRIIaH [3] stood at 4 fold. For the same molecule, the “fold 3aV” value with FcgRIIIaV [4] came to 146 fold. Besides, in the assay with FcgRIIaR [5], the “fold 2aR” value is 1.7 fold. For the same molecule, the dissociation constant (Kd) in the assay with FcgRIIb [6] was determined as 3500 nM; with FcgRIIIaF [7], 2.4 nM; with FcgRIIaH [8] it was 130 nM; in the assay with FcgRIIIaV [9] it was 0.33 nM; in the assay with FcgRIa it was 0.076 nM; in the assay with FcgRIIaR [10] it was 440 nM.
